Reference: patent US20060045876A1 (LUDWIG INSTITUTE FOR CANCER RESEARCH, published 2006)

Assays:
G250 antigen = G250 antigen (UniProt Q16790 38-459); assay: flow cytometry (FACS) on G250 positive tumor cells
recombinant human GM-CSF = biological target: T1, recombinant human GM-CSF (human, UniProt P04141 18-144); assay: SPR (BIAcore 2000), rhGM-CSF on the chip, global fitting of Rmax
T1 construct: also called rhGM-CSF
Experimental: Biosensor analyses were carried out using a commercially available, BIAcore 2000, and a carboxymethyldetran coated sensor chip. The chip was derivatized with 1000, 300, or 100 RVs of recombinant human GM-CSF, on channels 1, 2, and 3 of the machine using standard amine coupling chemistry with channel 4 retained as the control blank channel.
After injection, dissociation was monitored by allowing HBS buffer to flow over the chip surface for 5 minutes. Any bound antibody was then eluted, and the chip surface was regenerated, between samples, via injecting 40 μl of 100 mM HCl, pH 2.7, at a rate of 5 μl/min.

T1 sequence (P04141 18-144 limits assumed): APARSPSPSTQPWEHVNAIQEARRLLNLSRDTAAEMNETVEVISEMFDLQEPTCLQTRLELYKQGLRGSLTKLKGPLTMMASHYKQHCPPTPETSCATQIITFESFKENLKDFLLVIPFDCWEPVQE

B1: chimeric G250 antibody (antibody, V domains shown)
VH: DVKLVESGAALVKLGGSLKLSCAASGFTFSNYYMSWVRQTPEKRLELVAAINSDGGITYYLDTVKGRFTISRDNAKNTLYLQMSSLKSEDTALFYCARHRSGYFSMDYWGQGTSVTVSS
VL: DIVMTQSQRFMSTTVGDRVSITCKASQNVVSAVAWYQQKPGQSPKLLIYSASNRYTGVPDRFTGSGSGTDFTLTISNMQSEDLADFFCQQYSNYPWTFGGGTKLEIKR
notes: Used as positive control in FACS; Its making is not described apart from this
Q: Does B1 bind (G250 antigen)?
A: Result: binds

B2: chimeric 19/2 anti-human GM-CSF monoclonal antibody (antibody, V domains shown)
VH: EVQLQQSGPELVKPGASVKISCKASGYTFTDYNIHWVKQSHGKSLDWIGYIAPYSGGTGYNQEFKNRATLTVDKSSSTAYMELRSLTSDDSAVYYCARRDRFPYFDYWGQGTTLRVSS
VL: DIVMIQSQKFVSTSVGDRVNITCKASQNVGSNVAWLQQKPGQSPKTLIYSASYRSGRVPDRFTGSGSGTDFILTITTVQSEDLAEYFCQQFNRSPLTFGSGTKLELKR
notes: made in CHO DG44 cells; also called chimeric 19/2 antibody; ch19/2
Q: B2 was tested. Which Ka (recombinant human GM-CSF) did it give?
A: The Ka was 2.69e+10 M⁻¹.

Q: And the koff (recombinant human GM-CSF)?
A: Its koff is 1.9e-05 s⁻¹.
